PMC2764445
Read-outs that look alike come from different tables or passages of the source.

Assays:
[1] = biological target: T1, Hfq (His-tagged; natural Hfq used in some experiments) (UniProt P0A6X3 1-102); assay: EMSA
[2] = biological target: T1, Hfq (His-tagged; natural Hfq used in …); assay: fluorescence anisotropy
[3] = biological target: T1, Hfq (His-tagged; natural Hfq used in …); assay: EMSA; remark: listed apart in the source

T1 sequence (P0A6X3 whole entry): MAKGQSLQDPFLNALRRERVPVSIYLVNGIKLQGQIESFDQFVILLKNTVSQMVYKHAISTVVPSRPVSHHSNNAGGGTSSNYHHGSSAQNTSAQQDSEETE

Binder | binding result [1] | other results
CCAGGGCACTTAAAAAATTCGCCTGG (ssDNA) [dMB-D16] | no binding | –
CGAAUUUUUUAAGUGC (ssRNA) [D16-FAM] | – | Kd [2]: 0.023 ± 0.004 µM
CCCCTCGAATTTTTTAAGTGCAGGGG (ssDNA) [dMB-R16] | no binding | –
GCACUUAAAAAAUUCG (ssRNA) [R16] | – | binding result [3]: binds
